Measured values taken from article PMC12445344, “Influence of Calcium Ions on the Membrane Binding of S100B Protein” (Langmuir, 2025).

Target: the molecule itself
Assay: native gel or EMSA; Coomassie-stained 16% native gel; dimeric S100B sample

B1: S100B protein (natural protein, human)
chain: SELEKAMVALIDVFHQYSGREGDKHKLKKSELKELINNELSHFLEEIKEQEVVDKVMETLDNDGDGECDFQEFMAFVAMVTTACHEFFEHE
notes: S100B, Homo sapiens, UniProt P04271; Gene carried in the pETDuet-1 vector; The protein is a homodimer as purified; the monomer was obtained by extensive dialysis against deionized water; also called dimeric S100B; monomeric S100B; source: E. coli BL21-CodonPlus (DE3)-RIL, purified (ammonium sulfate, HiTrap Q XL anion exchange)
binding result: binds
